{"source": "the DeepSol protein solubility set", "experiment": "soluble on expression in E. coli; label from the status in PepcDB or PDB records"}
{"sequence": "MGSSHHHHHHSSGLVPRGSHMSSENIPLRVQFKRMKAAEWARSDVILLESEIGFETDTGFARAGDGHNRFSDLGYISPLDYNLLTNKPNIDGLATKVETAQKLQQKADKETVYTKAESKQELDKKLNLKGGVMTGQLKFKPAATVAYSSSTGGAVNIDLSSTRGAGVVVYSDNDTSDGPLMSLRTGKETFNQSALFVDYKGTTNAVNIAMRQPTTPNFSSALNITSGNENGSAMQLRGSEKALGTLKITHENPSIGADYDKNAAALSIDIVKKTNGAGTAAQGIYINSTSGTTGKLLRIRNLSDDKFYVKSDGGFYAKETSQIDGNLKLKDPTANDHAATKAYVDKAISELKKLILKK", "values": [{"measurement": "soluble on expression in E. coli", "value": "soluble"}]}
{"sequence": "MTDKYRLRERVWDDLEDSGVARFPFPPHGRIPNYAGADEAAARLTETDVWQRAETVKANPDAPQLPVRRAALRAGKTLYAAVPRLRDEECFLRLDPTTIDDIDAATTVSGIEEYGDPVGPGDVDPIDLIVSGSVAVTDRGERVGKGEGYSDLEFALLRAFGRVDDDTATVTTVHERQVVDDAVPTAAHDVPMEYVVTPDRTITTTHEDDTPSGIDWDALDEQRLAEIPVLDRRSP", "values": [{"measurement": "soluble on expression in E. coli", "value": "soluble"}]}
{"sequence": "MSATTTNLKEAIVNRRSIRKVTKNDAITKERIEEVLKTALHAPTSFNMQSGRMVVLMDGEHEKFWDIVKETLRARVPAENFEATVERLKGFHAGVGTVLFFEDQATVEKMQENAPLYKDQFPFWSHQGNAMLQHTVWMLLSAEGIGASLQHYNPIVDAEVKETWNIPAEWSLVGQMPFGEPNEQPAERTFLPTEDVVKFY", "values": [{"measurement": "soluble on expression in E. coli", "value": "soluble"}]}
{"sequence": "SSSIKVECVIKEKNEVGESPVWEEKDSSLLYVDITGQKVSRWSSLTKQIESMNTEKLVGCVVPRQAGGYVIAEGTRFAFVDWVKRSITAVAEVNEKPNTRFNDGKVDPAGRFFAGTMSMDMKPDVVDAALYNLQPDHSVVRHFDQVHLSNGLDWSLDHRVFYYIDSLAFMVEAFDYDIQTGGLSNRRTVYKMEKDEGIPDGMCIDTEGKLWVACFNGGRVLRIDPQTGKRLQTVKLPAERITSCCFGGKDYSDLYITSAYIGMDAEALAKQPEAGCTFKVTGLGVKGIPPYSYTG", "values": [{"measurement": "soluble on expression in E. coli", "value": "soluble"}]}
{"sequence": "SMEVARAARLAQIFKEICDGIISYKDSSRQALAAPLLNLPPKKKNADYYEKISDPLDLITIEKQILTGYYKTVEAFDADMLKVFRNAEKYYGRKSPVGRDVCRLRKAYYNARHEASAQIDEIVGET", "values": [{"measurement": "soluble on expression in E. coli", "value": "soluble"}]}
{"sequence": "YASRDMDIKRLGKAVMAAAGSPGHFPDVAIPGGVRALPDPQALAELRLPENYEESFEPVPYDGFDMMLTSHGTLDPLGDHVTARSGEERITFDLQTWADHVAESRPGDPAPRPLVHGHPYRVGPYAHGEAMVPRSLAEIRRIIADPRLCEGEFRKESSILSGIGVGAVEGPRGLLVHRYVANEDGVLVDCQILTPTAQNEAWLASMLEASLQQDSDRGVELSVENSIRTANPCLPCSSAPEGHMGVVIEKGN", "values": [{"measurement": "soluble on expression in E. coli", "value": "not soluble"}]}
{"sequence": "LLGDEAIALGAIHAGISGVYAYPGTPSTEITEFIQNNRLAKERKLHSTWCTNEKTAMEAALGMSYAGKRALVCMKHVGMNVAADAFVNSAITGVNGGLVVLAADDPSMHSSQNEQDSRFYGKFAMIPMLEPSSQQEAYDMMDYAYTLSEKLKLPVLMRVVTRLAHSRAGVEVADIREENQLNPDHERAHWVLLPGNARKQYLDLVKKQEKLEEASSKSPYNYLEGLNPEYDYEFGVIACGIGYNYVKEADTDSCHIPVLKVSQYPLPAEEIRTMADRCGYVLVVEDGQPFVEEQVKAILSSDYEVKGRLTETLPRTGELTPDNVGEAIGWGIKRPFGKSQVVMPRPPALCQGCGHRDVYDALNKVAAEYPDARIFGDIGCYTLGALPPFRAIDSCVDMGASITMAKGASDAGVFPAIAVIGDSTFTHSGMTGLLDAVNDRANITVVISDNLTTAMTGGQDSAGTNKFEAICLGLGVEPEHVRVVVPLPKNMEEITRTIREEIEY", "values": [{"measurement": "soluble on expression in E. coli", "value": "not soluble"}]}
{"sequence": "MSLGTLPPELQNTCVARGKLPLLLDLDNTLLHAQAASATGCDVRLQDWIDPYGEPELYRFELPCNRKTYYMKLRPHLRTFLKKLEPFYEMSVYTNATQEYADIVIAILDGNRQLFQDRIVARDSGFRGEASENKAVRRLYEGMDKRCIVAFDDRQNIWTDLPLTHVVKAQHYDFFDSHKTELNAYYPPLSNGIEGMTAPDVLGNRQNEDEGHHHHHH", "values": [{"measurement": "soluble on expression in E. coli", "value": "not soluble"}]}
{"sequence": "MKLLFTSAFTQMFGYSNHMDQASNCQSTRNKIIKMMKKEEFPSGFQVPLHYPKYSKSDYEVMDDLRLDLLLKQYGFSFEGSLEDKRVFAIESFLWPDQL", "values": [{"measurement": "soluble on expression in E. coli", "value": "soluble"}]}
{"sequence": "MSLSKTLLEIRLNSLIDLRMFYFISLYFRLENKESHKSQEIGNLIRVYNRSKREEAESEPLNLYVEDEKGNLLAGLIAETFGNWLEIEYLFVKEELRGQGIGSKLLQQAESEAKNRNCCFAFVNTYQFQAPDFYQKHGYKEVFSLQDYLYIRQRYYYQKNLEGHHHHHH", "values": [{"measurement": "soluble on expression in E. coli", "value": "not soluble"}]}
{"sequence": "MSWQTYVDDHLMCDIDGHRLTAAAIIGHDGSVWAQSSSFPQFKSDEVAAVMKDFDEPGSLAPTGLHLGGTKYMVIQGEPGAVIRGKKGSGGITVKRTGQALIIGIYDEPLTPGQCNMIVERLGDYLLDQGL", "values": [{"measurement": "soluble on expression in E. coli", "value": "soluble"}]}
{"sequence": "MGSDKIHHHHHHMQINNKIIISCSIIASLVSQTTYAQINTGTTSNKLTAFIHAELIIAPGKRLSDATLLVGNNRIKAIIEHGDIPAGAFKIDLSGYTIYPGFIDPFTDYGIEFEYPKLGLTRPVYGIKRIGGNADNGAIHSEKEWFNYVYPNKERAKEWINNGFTSVQSSKLDGIFRGTGVSLSLADKTANEVIYRARSQPFMAFDKGSSEQDYPSSLMGSIALIRPRIQIISATLGQNGEEGVSC", "values": [{"measurement": "soluble on expression in E. coli", "value": "not soluble"}]}
{"sequence": "MGSDKIHHHHHHVNYIKRAMENTFLRLAKEFPALLLTGPRQTGKTTMLQKLAAEEKIGRNYVTLDDLTERQMAKNDPKMFLQIHKPPVFIDEVQYAPELFSYIKIHIDRHHRPGDFWLTGSQVFKLMDGVQESLAGRVGLLHMSPMSQAESCGADTTPFILDLEQLTRRVRERNPLDTPALYERIFRGGMPALVSGQYTDHWALYSSYISTYLDRDVKEISGTINSLRFMDFITAAAALCGQMLNYKTIADAAGIDQLTAKGWLGILERLGIIFYLHPYANNMLKRMVTKPKLYFYDCGLVAYLTKWSDSATLMNGAMSGAILENFVVSEIIKSYQNYGREAFIYYYRDKDTKEIDILLEDSGKLYPMEIKKTATPQKQLTRVFNVIDKATLERGTGAVLCTTDRLSAFDSENLIIPIWGI", "values": [{"measurement": "soluble on expression in E. coli", "value": "not soluble"}]}
{"sequence": "GMASIKGEVDEIANYGNLKITKEEERVNITGDLEKFSSLEEGTIVTRFNMNDTSIQSLIGLSDGNKANNYFSLYVSGGKVGYELRRQEGNGDFNVHHSADVTFNRGINTLALKIEKGIGAKIFLNGSLVKTVSDPNIKFLNAINLNSGFIGKTDRANGYNEYLFRGNIDFMNIYDKPVSDNYLLRKTGETK", "values": [{"measurement": "soluble on expression in E. coli", "value": "soluble"}]}
{"sequence": "MGSDKIHHHHHHMLDDIKKTLWAAADKLRANVDAAEYKHLVLGLIFLKFVSDTFAARRAELERRFVDVNDDYFLHDADADFIAEELEERDYYIEVNVFWVPEPARWEGLRANAKQANIGKQIDDALDAIEKENPSLKGILDKRYARAPLPDGKLGELVDLISTIGFGEDQSKARDILGQVYEYFLGQFASAEGKKGGQFYTPQSIVNTLVAVLDPHQGKVYDPCCGSGGMFVQSEKFIEAHGGKLGDVSIYGQESNPTTWRLAAMNLAIRGIDFNLGREPGDTFTKNQHSDLRADYILANPPFNISDWWHGSLEGDPRWVYGNPPQGNANYAWLQHMLYHLKPTGRAGIVLANGSMSSSQNTEGDIRRAMVDADVVEVMVALPGQLFFNTQIPACLWFLTKQKTARKGEVLFIDARKLGKMISRVQSELDQAAIDRIANTAKAWRGEDMTGVEGFEDGYQDIPGFCRSVPLSEIAEHGHVLTPGRYVGAEEVEDCDDAFADKMTMLTEKLAEQMAKGAELDQLIRQKLGGLGYEF", "values": [{"measurement": "soluble on expression in E. coli", "value": "not soluble"}]}
{"sequence": "MGSHHHHHHDITSLYKKAGSAAAVLEENLYFQGSFTMRLKELGEFGLIDLIKKTLESKVIGDDTAPVEYCSKKLLLTTDVLNEGVHFLRSYIPEAVGWKAISVNVSDVIANGGLPKWALISLNLPEDLEVSYVERFYIGVKRACEFYKCEVVGGNISKSEKIGISVFLVGETERFVGRDGARLGDSVFVSGTLGDSRAGLELLLMEKEEYEPFELALIQRHLRPTARIDYVKHIQKYANASMDISDGLVADANHLAQRSGVKIEILSEKLPLSNELKMYCEKYGKNPIEYALFGGEDYQLLFTHPKERWNPFLDMTEIGRVEEGEGVFVDGKKVEPKGWKHF", "values": [{"measurement": "soluble on expression in E. coli", "value": "soluble"}]}
{"sequence": "MAGQIRMSPEELKSKATRYGQGANQIEDILRQLQNLQNELRGEWEGRAFEGFDQQFNQLKPKVQNFAQLLQEINMQLNKTAEAVARHDEDLSRNFGLQ", "values": [{"measurement": "soluble on expression in E. coli", "value": "not soluble"}]}
{"sequence": "MSSAYQLVIFDWEGTIADTLGVILHTVATEAKMLGFGDIDPYQARKYVDLGLVQAVKKTLPNLTAGQQEDLLQAVQSAMISRPTEVRLIPGVLEFIQQLHQAKVDLAIATNKGHNSLIRALQATELDQLFKVTRSAGQVPAKPCPQMLEEIMEEFGRDPSSTLMIGDSTTDMEMAKRINVNAIGMDFYHQQEDALKAAGALAVFDDYKLLSAYLMLPEA", "values": [{"measurement": "soluble on expression in E. coli", "value": "not soluble"}]}
{"sequence": "SMFNNELMADVHFVVGPPGATRTVPAHKYVLAVGSSVFYAMFYGDLAEVKSEIHIPDVEPAAFLILLKYMYSDEIDLEADTVLATLYAAKKYIVPALAKACVNFLETSL", "values": [{"measurement": "soluble on expression in E. coli", "value": "soluble"}]}
{"sequence": "MSTSLVDRLWYGQGRPLALLTPLAWLYRAVSESRRRKAWHARNESLPVPVVVVGNITAGGTGKSPLTASLVQCMNQHGWKPVILSRGYGGKSSQYPLLVADGTPAGVCGDEPLMLARATGCPVVVDPDRCRGARWALENGLGDVLICDDGLQHYRLPRDIELAVFDARRGTGNGAIIPVGPLREPVERLNSVDFVVLNGAEFPEAGETIESFAGVDHPEIHAMELVPSALVNLNSGETLSPEQLKGKPVRAVAGIGNPGRFFETLRNLGAHVNEVPFPDHHHFRPEDLASGALEWLVMTAKDAVKCHGFAPDNAWVLTVQARLSEPFEQHFLERLRASSGQLQTDISEESNHGLEHHHHHH", "values": [{"measurement": "soluble on expression in E. coli", "value": "not soluble"}]}
{"sequence": "MTTYTFDQVEEAIEQLYPDFTINTIEISGEGNDCIAYEINGNFIFKFPKHSRASINLLNEVTVLKTIHNELSLPIPEVVFTGMPSEMCQMSFAGFTKIKGVPLTPLLLKNLPKQSQDQAAKDLARFLSELHSINISGFKSNLVLDFREKINEDNKKIKKLLSRELKGHQMKKVDDFYRDILDNEIYFKYYPCLIHNDFSSDHILFDTEKNTICGIIDFGDAAISDPDNDFISLMEDDEEYGMEFVSKILNHYKHKDIPTVLEKYMMKEKYWSFEKIIYGKEYGYMDWYEEGLNEIRSIKIK", "values": [{"measurement": "soluble on expression in E. coli", "value": "soluble"}]}
{"sequence": "MGHHHHHHSHMHPDCGFLLNKDVGNIAKYDIRVKNLKSRLRGGKMRYQEEEARLASFRNWPFYVQGISPCVLSEAGFVFTGKQDTVQCFSCGGCLGNWEEGDDPWKEHAKWFPKCEFLRSKKSSEEITQYIQSYKGFVDITGEH", "values": [{"measurement": "soluble on expression in E. coli", "value": "soluble"}]}
{"sequence": "MIINITILEDNESDFITLSDSIKKWAANTGILINIIWLNSYKKFIKSLPTLKCDLFFSDIELNCNNSFTGIDACKQLRESGYTGIIIFLTAFKEYVFDGYDVQAFNYLLKPINYGTINNCLDKFIHLFSREFYYLEHHHHHH", "values": [{"measurement": "soluble on expression in E. coli", "value": "soluble"}]}
{"sequence": "MAADPASAPVLLHPRRAMVLAAGLGLRMRPLTETMPKPLVAIHDKPLIDWALDHLATAGVEEAVVNLHHLPEMLEAHLQGRATPRIHFSDETGQRLETGGGVRKALPHLGDDPFYVLNSDVLWLNGTIPALDRLAAAWDPETMDALLLLHPLAAAHGYEGLGDFDLDPLGRPTRRAEMHMAPFIFTGVQILHPRLFDDAPEGPFSLNVLYDRALSEDRLAAIVHDGEWYHVGTPQALVHTETILGQHSSMSDQLEHHHHHH", "values": [{"measurement": "soluble on expression in E. coli", "value": "not soluble"}]}
